Experimental data as given in the supplement of paper PMC9112550, “Optimization of the antimicrobial peptide Bac7 by deep mutational scanning” (BMC Biology, 2022).

Each sequence was assayed on Escherichia coli TOP10 (assay: shrunken log2 fold change of peptide-encoding DNA abundance (4.5 h post-induction vs induction); higher = less antimicrobial activity (less host growth inhibition)). Conditions: time post-induction: 4.5 h; library: site-saturation at positions 5, 18, 19, 20.
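Further: peptides expressed intracellularly from a pBAD plasmid library in pooled LB shake-flask culture, induced with 0.3% L-arabinose, DNA abundance read by NGS, three biological replicates, DESeq2 with apeglm shrinkage.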

Sequence	shrunken log2 fold change
RRIRRRPPRLPRPRPRPHRSPRP	-0.00354
RRIRRRPPRLPRPRPRPHSVPRP	0.0319
RRIRRRPPRLPRPRPRPHVYPRP	-0.341
RRIRRRPPRLPRPRPRPIAHPRP	-0.0355
RRIRRRPPRLPRPRPRPIEFPRP	-0.0597
RRIRRRPPRLPRPRPRPIEKPRP	0.149
RRIRRRPPRLPRPRPRPIFCPRP	0.0473
RRIRRRPPRLPRPRPRPIFMPRP	0.294
RRIRRRPPRLPRPRPRPIGDPRP	0.257
RRIRRRPPRLPRPRPRPIHHPRP	-0.207
RRIRRRPPRLPRPRPRPIISPRP	-0.155
RRIRRRPPRLPRPRPRPIKDPRP	-0.0902
RRIRRRPPRLPRPRPRPIKGPRP	0.174
RRIRRRPPRLPRPRPRPIKHPRP	0.0383
RRIRRRPPRLPRPRPRPIKRPRP	0.156
RRIRRRPPRLPRPRPRPILTPRP	0.447
RRIRRRPPRLPRPRPRPIMNPRP	-0.347
RRIRRRPPRLPRPRPRPINEPRP	-0.0486
RRIRRRPPRLPRPRPRPINGPRP	-0.0719
RRIRRRPPRLPRPRPRPINIPRP	-0.256
RRIRRRPPRLPRPRPRPIQMPRP	0.272
RRIRRRPPRLPRPRPRPIRGPRP	0.1
RRIRRRPPRLPRPRPRPITFPRP	0.058
RRIRRRPPRLPRPRPRPITMPRP	-0.0568
RRIRRRPPRLPRPRPRPITVPRP	-0.179

Sequence	shrunken log2 fold change
RRIRRRPPRLPRPRPRPIVDPRP	0.841
RRIRRRPPRLPRPRPRPIVIPRP	-0.125
RRIRRRPPRLPRPRPRPIWWPRP	0.58
RRIRRRPPRLPRPRPRPKAPPRP	0.0122
RRIRRRPPRLPRPRPRPKASPRP	0.183
RRIRRRPPRLPRPRPRPKDHPRP	0.0887
RRIRRRPPRLPRPRPRPKENPRP	0.325
RRIRRRPPRLPRPRPRPKFCPRP	0.175
RRIRRRPPRLPRPRPRPKHKPRP	0.339
RRIRRRPPRLPRPRPRPKHPPRP	0.294
RRIRRRPPRLPRPRPRPKIQPRP	0.0197
RRIRRRPPRLPRPRPRPKKIPRP	0.106
RRIRRRPPRLPRPRPRPKKNPRP	0.496
RRIRRRPPRLPRPRPRPKPKPRP	0.273
RRIRRRPPRLPRPRPRPKQDPRP	0.38
RRIRRRPPRLPRPRPRPKQHPRP	0.302
RRIRRRPPRLPRPRPRPKSMPRP	0.0108
RRIRRRPPRLPRPRPRPKTGPRP	0.1
RRIRRRPPRLPRPRPRPKTLPRP	0.146
RRIRRRPPRLPRPRPRPKTVPRP	0.233
RRIRRRPPRLPRPRPRPKWEPRP	0.364
RRIRRRPPRLPRPRPRPLDGPRP	0.0894
RRIRRRPPRLPRPRPRPLDLPRP	-0.158
RRIRRRPPRLPRPRPRPLDTPRP	0.168
RRIRRRPPRLPRPRPRPLEPPRP	0.582

Sequence	shrunken log2 fold change
RRIRRRPPRLPRPRPRPLEYPRP	-0.326
RRIRRRPPRLPRPRPRPLFDPRP	0.136
RRIRRRPPRLPRPRPRPLFWPRP	0.472
RRIRRRPPRLPRPRPRPLGIPRP	0.984
RRIRRRPPRLPRPRPRPLHMPRP	0.0287
RRIRRRPPRLPRPRPRPLICPRP	0.119
RRIRRRPPRLPRPRPRPLIEPRP	0.35
RRIRRRPPRLPRPRPRPLIGPRP	-0.0159
RRIRRRPPRLPRPRPRPLKTPRP	0.157
RRIRRRPPRLPRPRPRPLKWPRP	-0.107
RRIRRRPPRLPRPRPRPLLMPRP	0.395
RRIRRRPPRLPRPRPRPLMHPRP	0.292
RRIRRRPPRLPRPRPRPLNYPRP	-0.365
RRIRRRPPRLPRPRPRPLPDPRP	0.112
RRIRRRPPRLPRPRPRPLPSPRP	0.752
RRIRRRPPRLPRPRPRPLQGPRP	0.0475
RRIRRRPPRLPRPRPRPLQHPRP	0.387
RRIRRRPPRLPRPRPRPLQWPRP	0.292
RRIRRRPPRLPRPRPRPLRVPRP	0.966
RRIRRRPPRLPRPRPRPLSAPRP	0.444
RRIRRRPPRLPRPRPRPLSQPRP	0.000673
RRIRRRPPRLPRPRPRPLTSPRP	0.233
RRIRRRPPRLPRPRPRPLTYPRP	-0.204
RRIRRRPPRLPRPRPRPLVCPRP	0.177
RRIRRRPPRLPRPRPRPLVTPRP	-0.0631
